The values below come from patent US20250145729A1 (DENALI THERAPEUTICS, published 2025).

The term Kd denotes the free concentration of one partner at which half of the binding sites on the other are occupied at equilibrium, for simple one-to-one binding. Lower therefore signals a tighter complex.

Experiment [1] addresses T1, circularly permuted human TfR apical domain (human).
T1 construct: TfR residues 326-379 stand N-terminal to 194-296, loop 297-325 deleted; also called huTfR Apical Domain
T1 chain: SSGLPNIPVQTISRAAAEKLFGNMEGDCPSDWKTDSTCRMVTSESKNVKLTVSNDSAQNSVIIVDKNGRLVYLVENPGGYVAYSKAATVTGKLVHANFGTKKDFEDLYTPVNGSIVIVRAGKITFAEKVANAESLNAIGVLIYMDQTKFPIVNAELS
In words: SPR, supernatant, anti-Fab capture. On the procedure:
(§1) Clones were expressed in HEK293 cells. Supernatants were captured for SPR by GE Healthcare anti-human Fab capture kit and the affinity to human and cyno TfR apical domain was measured (Table 30). The clones in Table 30 were bivalent and each TfR-binding Fc polypeptide also contained P329G and LALA mutations.
A general note: SPR reads the build-up and loss of mass on a sensor chip optically.

The target of experiment [2] is T2, circularly permuted cyno TfR apical domain (cynomolgus monkey).
T2 construct: same design as the human construct; also called cyTfR Apical Domain; cynomolgus TfR apical domain
T2 chain: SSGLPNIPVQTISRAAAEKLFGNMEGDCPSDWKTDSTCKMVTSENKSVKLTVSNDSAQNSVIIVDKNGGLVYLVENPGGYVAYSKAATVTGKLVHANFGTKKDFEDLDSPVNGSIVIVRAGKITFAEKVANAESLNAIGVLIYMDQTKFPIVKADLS
The experiment can be described thus: SPR, supernatant, anti-Fab capture. On the procedure: as §1

B1: 42.8.168 (Fc fusion)
chain: APEAAGGPSVFLFPPKPKDTLMISRTPEVTCVVVDVSHEDPEVKFNWYVDGVEVHNAKTKPREEQYNSTYRVVSVLTVLHQDWLNGKEYKCKVSNKALGAPIEKTISKAKGQPREPQVYTLPPSRDELTKNQVSLTCLVKGFYPSDIAVEWFYDASKLSNYKTTPPVLDSDGSFFLYSKLTVDKSRWQQGNLFACEVMHEALHNHYTYKLLSLSPGK
notes: bivalent; P329G+LALA
With B1, the Kd in experiment [1] turned out to be 0.531 µM; in experiment [2] it was 5.7 µM.

B2: 42.8.175 (Fc fusion)
chain: APEAAGGPSVFLFPPKPKDTLMISRTPEVTCVVVDVSHEDPEVKFNWYVDGVEVHNAKTKPREEQYNSTYRVVSVLTVLHQDWLNGKEYKCKVSNKALGAPIEKTISKAKGQPREPQVYTLPPSRDELTKNQVSLTCLVKGFYPSDIAVEWFYDDSKENNYKTTPPVLDSDGSFFLYSKLTVDKSRWQQGNLFACEVMHEALHNHYTYKLLSLSPGK
notes: bivalent; P329G+LALA
Regarding B2, the dissociation constant (Kd) in experiment [1] came to 1.05 µM; in experiment [2], 15.8 µM.

B3: 42.8.204 (Fc fusion)
chain: APEAAGGPSVFLFPPKPKDTLMISRTPEVTCVVVDVSHEDPEVKFNWYVDGVEVHNAKTKPREEQYNSTYRVVSVLTVLHQDWLNGKEYKCKVSNKALGAPIEKTISKAKGQPREPQVYTLPPSRDELTKNQVSLTCLVKGFYPSDIAVEWFYEASKLSNYKTTPPVLDSDGSFFLYSKLTVDKSRWQQGNLFACEVMHEALHNHYTYKLLSLSPGK
notes: bivalent; P329G+LALA
In the case of B3, the figures for the equilibrium dissociation constant (Kd) in experiment [1] and in experiment [2] were 0.436 µM and 4.63 µM, respectively.

B4: 42.8.202 (Fc fusion)
chain: APEAAGGPSVFLFPPKPKDTLMISRTPEVTCVVVDVSHEDPEVKFNWYVDGVEVHNAKTKPREEQYNSTYRVVSVLTVLHQDWLNGKEYKCKVSNKALGAPIEKTISKAKGQPREPQVYTLPPSRDELTKNQVSLTCLVKGFYPSDIAVEWFYEASKLNNYKTTPPVLDSDGSFFLYSKLTVDKSRWQQGNLFACEVMHEALHNHYTYKLLSLSPGK
notes: bivalent; P329G+LALA
For the molecule B4, the Kd in experiment [1] came to 0.505 µM; in experiment [2] it was 6.27 µM.

B5: 42.8.174 (Fc fusion)
chain: APEAAGGPSVFLFPPKPKDTLMISRTPEVTCVVVDVSHEDPEVKFNWYVDGVEVHNAKTKPREEQYNSTYRVVSVLTVLHQDWLNGKEYKCKVSNKALGAPIEKTISKAKGQPREPQVYTLPPSRDELTKNQVSLTCLVKGFYPSDIAVEWFYDDQKLSNYKTTPPVLDSDGSFFLYSKLTVDKSRWQQGNLFACEVMHEALHNHYTYKLLSLSPGK
notes: bivalent; P329G+LALA
Take B5: the Kd came out at 0.726 µM in experiment [1] and 7.78 µM in experiment [2].

B6: 42.8.189 (Fc fusion)
chain: APEAAGGPSVFLFPPKPKDTLMISRTPEVTCVVVDVSHEDPEVKFNWYVDGVEVHNAKTKPREEQYNSTYRVVSVLTVLHQDWLNGKEYKCKVSNKALGAPIEKTISKAKGQPREPQVYTLPPSRDELTKNQVSLTCLVKGFYPSDIAVEWFYEGSKESNYKTTPPVLDSDGSFFLYSKLTVDKSRWQQGNLFACEVMHEALHNHYTYKLLSLSPGK
notes: bivalent; P329G+LALA
For the molecule B6, the values for the Kd in experiment [1] and in experiment [2] were 1.1 µM and 13.5 µM, respectively.

B7: 42.8.195 (Fc fusion)
chain: APEAAGGPSVFLFPPKPKDTLMISRTPEVTCVVVDVSHEDPEVKFNWYVDGVEVHNAKTKPREEQYNSTYRVVSVLTVLHQDWLNGKEYKCKVSNKALGAPIEKTISKAKGQPREPQVYTLPPSRDELTKNQVSLTCLVKGFYPSDIAVEWFYEAQKESNYKTTPPVLDSDGSFFLYSKLTVDKSRWQQGNLFACEVMHEALHNHYTYKLLSLSPGK
notes: bivalent; P329G+LALA
B7: the dissociation constant Kd in experiment [1] amounted to 1.23 µM; in experiment [2], 13.3 µM.

B8: 42.8.182 (Fc fusion)
chain: APEAAGGPSVFLFPPKPKDTLMISRTPEVTCVVVDVSHEDPEVKFNWYVDGVEVHNAKTKPREEQYNSTYRVVSVLTVLHQDWLNGKEYKCKVSNKALGAPIEKTISKAKGQPREPQVYTLPPSRDELTKNQVSLTCLVKGFYPSDIAVEWFYEGQKETNYKTTPPVLDSDGSFFLYSKLTVDKSRWQQGNLFACEVMHEALHNHYTYKLLSLSPGK
notes: bivalent; P329G+LALA
Regarding B8, the figures for the Kd in experiment [1] and in experiment [2] were 2.29 µM and 14.4 µM, respectively.

B9: 42.8.184 (Fc fusion)
chain: APEAAGGPSVFLFPPKPKDTLMISRTPEVTCVVVDVSHEDPEVKFNWYVDGVEVHNAKTKPREEQYNSTYRVVSVLTVLHQDWLNGKEYKCKVSNKALGAPIEKTISKAKGQPREPQVYTLPPSRDELTKNQVSLTCLVKGFYPSDIAVEWFYEGQKLNNYKTTPPVLDSDGSFFLYSKLTVDKSRWQQGNLFACEVMHEALHNHYTYKLLSLSPGK
notes: bivalent; P329G+LALA
For the molecule B9, the Kd in experiment [1] is 1.68 µM; in experiment [2], 17 µM.

B10: 42.8.199 (Fc fusion)
chain: APEAAGGPSVFLFPPKPKDTLMISRTPEVTCVVVDVSHEDPEVKFNWYVDGVEVHNAKTKPREEQYNSTYRVVSVLTVLHQDWLNGKEYKCKVSNKALGAPIEKTISKAKGQPREPQVYTLPPSRDELTKNQVSLTCLVKGFYPSDIAVEWFYEASKENNYKTTPPVLDSDGSFFLYSKLTVDKSRWQQGNLFACEVMHEALHNHYTYKLLSLSPGK
notes: bivalent; P329G+LALA
In the case of B10, the dissociation constant (Kd) in experiment [1] amounted to 0.869 µM; in experiment [2], 8.05 µM.

B11: 42.8.181 (Fc fusion)
chain: APEAAGGPSVFLFPPKPKDTLMISRTPEVTCVVVDVSHEDPEVKFNWYVDGVEVHNAKTKPREEQYNSTYRVVSVLTVLHQDWLNGKEYKCKVSNKALGAPIEKTISKAKGQPREPQVYTLPPSRDELTKNQVSLTCLVKGFYPSDIAVEWFYEGQKENNYKTTPPVLDSDGSFFLYSKLTVDKSRWQQGNLFACEVMHEALHNHYTYKLLSLSPGK
notes: bivalent; P329G+LALA
In the case of B11, the equilibrium dissociation constant (Kd) is 2.78 µM in experiment [1] and 12.1 µM in experiment [2].

B12: 42.8.197 (Fc fusion)
chain: APEAAGGPSVFLFPPKPKDTLMISRTPEVTCVVVDVSHEDPEVKFNWYVDGVEVHNAKTKPREEQYNSTYRVVSVLTVLHQDWLNGKEYKCKVSNKALGAPIEKTISKAKGQPREPQVYTLPPSRDELTKNQVSLTCLVKGFYPSDIAVEWFYEAQKLTNYKTTPPVLDSDGSFFLYSKLTVDKSRWQQGNLFACEVMHEALHNHYTYKLLSLSPGK
notes: bivalent; P329G+LALA
In the case of B12, the Kd worked out at 0.755 µM in experiment [1] and 11.4 µM in experiment [2].

B13: 42.8.187 (Fc fusion)
chain: APEAAGGPSVFLFPPKPKDTLMISRTPEVTCVVVDVSHEDPEVKFNWYVDGVEVHNAKTKPREEQYNSTYRVVSVLTVLHQDWLNGKEYKCKVSNKALGAPIEKTISKAKGQPREPQVYTLPPSRDELTKNQVSLTCLVKGFYPSDIAVEWFYEGSKENNYKTTPPVLDSDGSFFLYSKLTVDKSRWQQGNLFACEVMHEALHNHYTYKLLSLSPGK
notes: bivalent; P329G+LALA
On to B13, for which the results for the Kd in experiment [1] and in experiment [2] were 1.6 µM and 13.4 µM, respectively.

B14: 42.8.183 (Fc fusion)
chain: APEAAGGPSVFLFPPKPKDTLMISRTPEVTCVVVDVSHEDPEVKFNWYVDGVEVHNAKTKPREEQYNSTYRVVSVLTVLHQDWLNGKEYKCKVSNKALGAPIEKTISKAKGQPREPQVYTLPPSRDELTKNQVSLTCLVKGFYPSDIAVEWFYEGQKESNYKTTPPVLDSDGSFFLYSKLTVDKSRWQQGNLFACEVMHEALHNHYTYKLLSLSPGK
notes: bivalent; P329G+LALA
In the case of B14, the Kd in experiment [1] was determined as 2.33 µM; in experiment [2], 15.1 µM.

B15: 42.8.201 (Fc fusion)
chain: APEAAGGPSVFLFPPKPKDTLMISRTPEVTCVVVDVSHEDPEVKFNWYVDGVEVHNAKTKPREEQYNSTYRVVSVLTVLHQDWLNGKEYKCKVSNKALGAPIEKTISKAKGQPREPQVYTLPPSRDELTKNQVSLTCLVKGFYPSDIAVEWFYEASKESNYKTTPPVLDSDGSFFLYSKLTVDKSRWQQGNLFACEVMHEALHNHYTYKLLSLSPGK
notes: bivalent; P329G+LALA
B15: the Kd in experiment [1] is 0.647 µM; in experiment [2] it was 4.91 µM.

B16: 42.8.185 (Fc fusion)
chain: APEAAGGPSVFLFPPKPKDTLMISRTPEVTCVVVDVSHEDPEVKFNWYVDGVEVHNAKTKPREEQYNSTYRVVSVLTVLHQDWLNGKEYKCKVSNKALGAPIEKTISKAKGQPREPQVYTLPPSRDELTKNQVSLTCLVKGFYPSDIAVEWFYEGQKLTNYKTTPPVLDSDGSFFLYSKLTVDKSRWQQGNLFACEVMHEALHNHYTYKLLSLSPGK
notes: bivalent; P329G+LALA
Regarding B16, the Kd in experiment [1] is 1.85 µM; in experiment [2], 13.3 µM.

B17: 42.8.194 (Fc fusion)
chain: APEAAGGPSVFLFPPKPKDTLMISRTPEVTCVVVDVSHEDPEVKFNWYVDGVEVHNAKTKPREEQYNSTYRVVSVLTVLHQDWLNGKEYKCKVSNKALGAPIEKTISKAKGQPREPQVYTLPPSRDELTKNQVSLTCLVKGFYPSDIAVEWFYEAQKETNYKTTPPVLDSDGSFFLYSKLTVDKSRWQQGNLFACEVMHEALHNHYTYKLLSLSPGK
notes: bivalent; P329G+LALA
As for B17, the Kd in experiment [1] was determined as 1.23 µM; in experiment [2] it was 11.8 µM.

B18: 42.8.192 (Fc fusion)
chain: APEAAGGPSVFLFPPKPKDTLMISRTPEVTCVVVDVSHEDPEVKFNWYVDGVEVHNAKTKPREEQYNSTYRVVSVLTVLHQDWLNGKEYKCKVSNKALGAPIEKTISKAKGQPREPQVYTLPPSRDELTKNQVSLTCLVKGFYPSDIAVEWFYEGSKLSNYKTTPPVLDSDGSFFLYSKLTVDKSRWQQGNLFACEVMHEALHNHYTYKLLSLSPGK
notes: bivalent; P329G+LALA
On to B18, for which the Kd in experiment [1] turned out to be 0.761 µM; in experiment [2], 11.3 µM.

B19: 42.8.173 (Fc fusion)
chain: APEAAGGPSVFLFPPKPKDTLMISRTPEVTCVVVDVSHEDPEVKFNWYVDGVEVHNAKTKPREEQYNSTYRVVSVLTVLHQDWLNGKEYKCKVSNKALGAPIEKTISKAKGQPREPQVYTLPPSRDELTKNQVSLTCLVKGFYPSDIAVEWFYDDQKLTNYKTTPPVLDSDGSFFLYSKLTVDKSRWQQGNLFACEVMHEALHNHYTYKLLSLSPGK
notes: bivalent; P329G+LALA
As for B19, the equilibrium dissociation constant (Kd) in experiment [1] turned out to be 0.603 µM; in experiment [2], 6.72 µM.
